Reference: paper PMC6157868, “Characterization of novel glycosyl hydrolases discovered by cell wall glycan directed monoclonal antibody screening and metagenome analysis of maize aerial root mucilage” (PLoS ONE, 2018)
Each block holds one molecule with its values, some of them ahead of it.

Columns and labels:
[1] = target: T1, α-N-Arabinofuranosidase (FjArf51) (Flavobacterium johnsoniae, UniProt A5FF88); experiment: 4-nitrophenol release at […] nm, Michaelis-Menten fit; assay type: biochemical; conditions: 30 °C, pH 7, 50 mM phosphate
T1 construct: gene Fjoh_3113; full-length codon-optimised synthetic gene, pET-28a(+), C-terminal 6xHis, E. coli BL21(DE3) pLysS, 75 kDa
T1 sequence (A5FF88 1-661): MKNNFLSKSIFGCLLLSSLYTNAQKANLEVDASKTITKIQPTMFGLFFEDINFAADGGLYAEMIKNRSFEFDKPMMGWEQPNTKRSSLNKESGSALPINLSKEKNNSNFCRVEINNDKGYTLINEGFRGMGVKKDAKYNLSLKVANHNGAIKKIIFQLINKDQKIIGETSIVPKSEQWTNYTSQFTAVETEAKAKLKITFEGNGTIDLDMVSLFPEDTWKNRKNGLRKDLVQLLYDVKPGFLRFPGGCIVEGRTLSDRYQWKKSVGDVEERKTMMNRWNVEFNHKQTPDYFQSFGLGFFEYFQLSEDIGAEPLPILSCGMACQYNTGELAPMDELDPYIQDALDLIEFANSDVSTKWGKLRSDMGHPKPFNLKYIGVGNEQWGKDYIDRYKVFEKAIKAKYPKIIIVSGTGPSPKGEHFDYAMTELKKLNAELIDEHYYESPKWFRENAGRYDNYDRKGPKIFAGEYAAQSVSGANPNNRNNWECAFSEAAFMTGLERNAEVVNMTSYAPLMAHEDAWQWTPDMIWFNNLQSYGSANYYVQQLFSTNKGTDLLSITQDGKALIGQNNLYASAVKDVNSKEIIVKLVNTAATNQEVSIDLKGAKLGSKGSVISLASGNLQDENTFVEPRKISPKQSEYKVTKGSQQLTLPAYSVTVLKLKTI

purified protein [2] = substrate: C[C@@H]1O[C@@H](Oc2ccc([N+](=O)[O-])cc2)[C@@H](O)[C@H](O)[C@@H]1O; experiment: purified protein; assay type: biochemical, Spirosoma linguale; conditions: 30 °C, pH 5, 50 mM citrate-phosphate
purified protein [3] = substrate: O=[N+]([O-])c1ccc(O[C@@H]2OC[C@@H](O[C@@H]3OC[C@@H](O[C@@H]4OC[C@@H](O)[C@H](O)[C@H]4O)[C@H](O)[C@H]3O)[C@H](O)[C@H]2O)cc1; experiment: purified protein; assay type: biochemical, Flavobacterium johnsoniae; conditions: 30 °C, pH 6, 50 mM phosphate
purified protein [4] = substrate: O=[N+]([O-])c1ccc(O[C@@H]2OC[C@@H](O[C@@H]3OC[C@@H](O[C@@H]4OC[C@@H](O)[C@H](O)[C@H]4O)[C@H](O)[C@H]3O)[C@H](O)[C@H]2O)cc1; experiment: purified protein; assay type: biochemical, Spirosoma linguale; conditions: 30 °C, pH 6, 50 mM phosphate
purified protein [5] = substrate: O=[N+]([O-])c1ccc(O[C@@H]2O[C@H](CO)[C@H](O)[C@H](O)[C@H]2O)cc1; experiment: purified protein; assay type: biochemical, Agrobacterium fabrum; conditions: 30 °C, pH 7, 50 mM phosphate
purified protein [6] = substrate: O=[N+]([O-])c1ccc(O[C@@H]2O[C@H](CO)[C@@H](O)[C@H](O)[C@@H]2O)cc1; experiment: purified protein; assay type: biochemical, Agrobacterium fabrum; conditions: 30 °C, pH 7, 50 mM phosphate

Km [1]: 220 ± 87 µM
Molecule: O=[N+]([O-])c1ccc(O[C@@H]2OC[C@H](O)[C@H](O)[C@H]2O)cc1 [4NP-α-Ara]

B1: α-L-Fucosidase (SlFuc29) (Spirosoma linguale DSM 74) (protein)
chain: MKKQITSILFSLLVSTSALAQQHSEQNHDKYVWPKDELVKKKLANWQDIKFGLLMHWGTYSEWGVVESWSLCPEDEGWCERRGPYAANWFEYKKAYENLQTTFNPTKFNPERWANAAKGAGMKYVVFTTKHHDGFCMFDTKLTDYKITDKKTPFSSNPRSNVTKEILGAFRQQGFMVGTYFSKPDWHTEDYWWTYFPPKDRNVSYDPKKYPDHWKKFSDFTYNQIEELMTGYGNVDILWLDGGWVRPASTIDSTVSWQRTIPYSQDINMARIAGMARQHQPGLLVVDRTVSGEFENYVTPEQSIPDHYMPIPWESCITMGDSWSYIPKENFKPARKLVQTLVDIVAKNGNLLLNIAPGPDGEWHEEAYQRLQEIGKWITVNGESIYGTKPLAPYRQGQWAFTSNNKAVYASYLPSESEQQLPASISLPALTVAPNAKVTVLGASQALKLTKTKDGFSVVVPEKVRQQLAGQPVWVFKIG
notes: full-length codon-optimised synthetic gene, pET-28a(+), C-terminal 6xHis, E. coli BL21(DE3) pLysS, 55 kDa
Km (purified protein [2]): 580 ± 20 µM
kcat (purified protein [2]): 53.1 s⁻¹
kcat/Km (purified protein [2]): 91800 M⁻¹ s⁻¹

B2: Oligosaccharide reducing end Xylanase (FjXyn8) (Flavobacterium johnsoniae UW101) (protein)
chain: MTVHHNITNGYLSKIHLLLLIFALIVPAFVISQNKKKIDRELKKPQYRNLFKEAGYSQDDIDKKLTKAYYDVFEGPDKVYFEEGDSLGYVSDVKNKDARTEGMSYGMMVAVQFNKKDVFDRLWRWSVKYMQHQDGPREGYFAWSVNPQTKKQNSAGSASDGELYYITSLLFASNKWGNDTGINYYKEARRILDAMWKKDGTGNIYNIINTEHKQISFVPEGGGYNWTDPSYHVPAFYEIWALYAKDGHEQFYKECAEVSRKFLHKACHPVTGLTSDYTEFNGEPHPTPWLPPGFRYDSWRVPMNIAMDYTWYGKDKEWQEDYAKRFQNFLRSKGLETYEDQFNLDGSTPEFILQAGPVKKLRHSIGLVGTAATASLVNKDKASIDFVHAVWNAKLEPYEDGYFDPYYDGLMYLFSLMHLSGNYQIIVPKG
notes: full-length codon-optimised synthetic gene, pET-28a(+), C-terminal 6xHis, E. coli BL21(DE3) pLysS, 50 kDa
Km (purified protein [3]): 790 ± 222 µM
kcat (purified protein [3]): 5.15 s⁻¹
kcat/Km (purified protein [3]): 6530 M⁻¹ s⁻¹

B3: Xylan β-1,4 Xylosidase (SlXyn39) (Spirosoma linguale DSM 74) (protein)
chain: MPLLRRFCLQTGHLSALFFGLVVSVAFGSIDSHAQTSPDKPVAIQVDLTKDKGPLKPIWAWFGYDEPNYTYMKDGRKLLTEISQLSKVPVNVRVHSLLVTGDGTAALKWGSTNAYTEDKAGNPIYNWTIIDKIFDTFIERGMKPIAQIGFMPEALSTKPQPYRHYWKPGDNYNDIYTGWAYPPKDYKKWSELVYQWVKHSVQRYGQKEVESWYWELWNEPNISYWKGTTEEYIKLYDYTADAVKRALPTAKIGGPEVTGPNWDVSEKFFRAFMDHVVKGTNAVTGKVGTPIDFITFHAKGAPKVVNGVVQMNMGTQLRDIDKGFAIVASYPSLKNLPIIIGESDPEGCAACSEDLHPQNAYRNGTMYSSYTAASFARKYDLAEARGVNLAGAVTWGFEFEDQAWFRGFRDLATNGVDKPVLNVFRMFGMMQGNRVAVNTDLAYNAKKIRDESVRGEPDINALATKDAQSASVMVWNYHDDNVQGPGSPVSLKINGLTAKKVWVQHYRIDQQFSNSYEVWKKMGSPKAPTAEQVAELEKAGQLQLLASPTWVTVEKGVLTMPFQLPRQGVSLVKVSW
notes: full-length codon-optimised synthetic gene, pET-28a(+), C-terminal 6xHis, E. coli BL21(DE3) pLysS, 65 kDa
Km (purified protein [4]): 80 ± 9 µM
kcat (purified protein [4]): 2.17 s⁻¹
kcat/Km (purified protein [4]): 26900 M⁻¹ s⁻¹

B4: β-Mannosidase (AfMan2) (Agrobacterium fabrum str. C58) (protein)
chain: MISSSTPETVIDLAGLWHLASVEGDHATEISIPGDIHSALKNAAIIPDPYHGANEKAVQWVAQQDWIIERTFILDDAEASWYLDIDYLDTVAIVFVNDVPVLSADNCFRRYRPDISRAVRPGENTIRIHFHSNITAGAERQARQPFYIPYHPGNSPIANGNMLRKPQCHFGWDWNIAIAPLGLYGKILLKRLDTARIEHVVSSQHHVEGGVELHVAVTLFAEGPASLPVYLSLGDERLRLECGVGAGETVVRHVFFVENPDLWWPAGSGEQTLYKLTVELPDETVTRQIGFRTIELLTDKDEAGSRFAFRINGREIFCRGANWIPADALYSLTSREKTEDLLCSAVEANMNMIRVWGGGFYEEDWFYDLCDRLGLLVWQDFMFACNLYPCSEDFLDNVEHEVDYQVKRLSSHPSIALWCGDNELVGALTWFDESRNNRDRYLVAYDRLNRTIEKALKKATPEALWWPSSPASGYLDYGDAWHADGSGDMHYWSVWHENKSFDNYHQVKPRFCSEFGFQSYTSMPVIRTYAEDKDMNIASPVIELHQKNVGGNERIAGTMFRYFRFPRDFENFVYLSQVQQALAIRTAVDYWRSLKPHCMGTLYWQLNDTWPVASWSSLDYGGGWKALHYAARRFFQPVAVSAIPSADGRRVTFSMVNDTAEDVEIDMNIVALAMDGNRVPLKSANGTCTSDKAATLTDIDMDSLPDGAILAWNFIASNGMTGEGHHVRDTYKALELQPAGLEFSVGPLKNGQFEIDVTAAGLALFIMLEADQPGRYSDNLFDLAAGETRRIIFTPKGAGPQPHFRIFDLHTCQSSPNPGIETMRRKA
notes: full-length codon-optimised synthetic gene, pET-28a(+), C-terminal 6xHis, E. coli BL21(DE3) pLysS, 93 kDa
Km (purified protein [5]): 250 ± 62 µM
kcat (purified protein [5]): 269 s⁻¹
kcat/Km (purified protein [5]): 1.08e+06 M⁻¹ s⁻¹
Km (purified protein [6]): 680 ± 219 µM
kcat (purified protein [6]): 1350 s⁻¹
kcat/Km (purified protein [6]): 1.98e+06 M⁻¹ s⁻¹
